Each block holds one binder with its values, some of them ahead of it. Where no end group is shown, it is not given here.
Legend:
canine NPRA [1] = target: T1, canine NPRA (canine, UniProt A0A8I3MHU3 32-1060); experiment: cell-based or functional assay
T1 sequence: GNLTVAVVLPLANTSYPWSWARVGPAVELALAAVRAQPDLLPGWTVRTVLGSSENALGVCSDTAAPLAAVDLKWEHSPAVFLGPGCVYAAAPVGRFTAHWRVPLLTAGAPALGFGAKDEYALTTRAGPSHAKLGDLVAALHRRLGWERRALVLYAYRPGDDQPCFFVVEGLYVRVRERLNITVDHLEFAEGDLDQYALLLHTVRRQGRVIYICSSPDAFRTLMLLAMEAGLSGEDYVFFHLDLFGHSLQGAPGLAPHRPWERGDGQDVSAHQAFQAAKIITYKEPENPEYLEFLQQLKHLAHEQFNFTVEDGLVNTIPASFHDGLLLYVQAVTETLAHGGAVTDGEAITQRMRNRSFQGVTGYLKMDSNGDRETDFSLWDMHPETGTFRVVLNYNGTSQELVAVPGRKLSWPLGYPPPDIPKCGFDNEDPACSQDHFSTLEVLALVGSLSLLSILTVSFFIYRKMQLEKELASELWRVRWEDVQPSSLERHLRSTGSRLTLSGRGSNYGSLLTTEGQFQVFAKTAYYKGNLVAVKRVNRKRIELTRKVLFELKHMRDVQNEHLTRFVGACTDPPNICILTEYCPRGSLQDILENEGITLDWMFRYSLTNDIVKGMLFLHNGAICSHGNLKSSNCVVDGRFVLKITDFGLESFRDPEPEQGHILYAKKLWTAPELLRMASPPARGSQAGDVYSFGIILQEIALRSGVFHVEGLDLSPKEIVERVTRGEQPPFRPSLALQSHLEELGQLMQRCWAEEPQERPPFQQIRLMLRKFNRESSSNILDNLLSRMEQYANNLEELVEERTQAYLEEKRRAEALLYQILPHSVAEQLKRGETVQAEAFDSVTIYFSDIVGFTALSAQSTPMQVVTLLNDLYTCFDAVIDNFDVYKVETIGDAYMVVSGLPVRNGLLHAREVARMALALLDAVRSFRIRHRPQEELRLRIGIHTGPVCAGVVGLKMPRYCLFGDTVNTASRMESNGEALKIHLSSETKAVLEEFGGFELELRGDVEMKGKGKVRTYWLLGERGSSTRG

rat NPRA = target: T2, rat NPRA (rat, UniProt P18910 29-1057); experiment: cell-based or functional assay
T2 sequence (looked up): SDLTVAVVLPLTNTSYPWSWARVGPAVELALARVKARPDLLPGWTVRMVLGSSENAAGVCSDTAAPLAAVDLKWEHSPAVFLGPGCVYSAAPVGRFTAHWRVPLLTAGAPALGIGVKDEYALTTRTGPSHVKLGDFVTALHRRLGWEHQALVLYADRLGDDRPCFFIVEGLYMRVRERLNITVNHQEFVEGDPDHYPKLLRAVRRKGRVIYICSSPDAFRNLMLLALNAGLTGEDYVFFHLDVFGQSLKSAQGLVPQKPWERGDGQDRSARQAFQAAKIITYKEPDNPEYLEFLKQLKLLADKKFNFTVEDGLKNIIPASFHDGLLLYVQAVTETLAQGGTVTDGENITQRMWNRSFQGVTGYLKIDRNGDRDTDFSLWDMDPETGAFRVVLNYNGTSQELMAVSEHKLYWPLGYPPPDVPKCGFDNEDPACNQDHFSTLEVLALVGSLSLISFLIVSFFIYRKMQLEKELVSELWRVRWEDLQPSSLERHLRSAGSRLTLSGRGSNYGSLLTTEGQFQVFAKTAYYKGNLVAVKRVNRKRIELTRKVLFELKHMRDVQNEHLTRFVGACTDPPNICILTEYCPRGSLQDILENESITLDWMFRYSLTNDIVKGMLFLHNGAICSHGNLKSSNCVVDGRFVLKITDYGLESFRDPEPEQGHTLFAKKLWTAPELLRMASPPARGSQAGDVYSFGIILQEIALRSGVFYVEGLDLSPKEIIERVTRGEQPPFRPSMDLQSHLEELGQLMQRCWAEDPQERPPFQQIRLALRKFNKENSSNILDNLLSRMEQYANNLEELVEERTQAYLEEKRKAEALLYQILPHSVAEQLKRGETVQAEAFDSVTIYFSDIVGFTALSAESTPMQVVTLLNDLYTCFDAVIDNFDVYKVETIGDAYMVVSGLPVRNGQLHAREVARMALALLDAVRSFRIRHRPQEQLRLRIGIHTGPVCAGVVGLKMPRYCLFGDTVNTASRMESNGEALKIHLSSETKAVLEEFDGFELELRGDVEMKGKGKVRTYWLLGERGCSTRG

monkey NPRA = monkey NPRA (monkey); experiment: cell-based or functional assay
[2] = target: T3, human natriuretic peptide receptor A (NPRA) (human, UniProt P16066 33-1061); experiment: cell-based or functional assay
T3 sequence (looked up): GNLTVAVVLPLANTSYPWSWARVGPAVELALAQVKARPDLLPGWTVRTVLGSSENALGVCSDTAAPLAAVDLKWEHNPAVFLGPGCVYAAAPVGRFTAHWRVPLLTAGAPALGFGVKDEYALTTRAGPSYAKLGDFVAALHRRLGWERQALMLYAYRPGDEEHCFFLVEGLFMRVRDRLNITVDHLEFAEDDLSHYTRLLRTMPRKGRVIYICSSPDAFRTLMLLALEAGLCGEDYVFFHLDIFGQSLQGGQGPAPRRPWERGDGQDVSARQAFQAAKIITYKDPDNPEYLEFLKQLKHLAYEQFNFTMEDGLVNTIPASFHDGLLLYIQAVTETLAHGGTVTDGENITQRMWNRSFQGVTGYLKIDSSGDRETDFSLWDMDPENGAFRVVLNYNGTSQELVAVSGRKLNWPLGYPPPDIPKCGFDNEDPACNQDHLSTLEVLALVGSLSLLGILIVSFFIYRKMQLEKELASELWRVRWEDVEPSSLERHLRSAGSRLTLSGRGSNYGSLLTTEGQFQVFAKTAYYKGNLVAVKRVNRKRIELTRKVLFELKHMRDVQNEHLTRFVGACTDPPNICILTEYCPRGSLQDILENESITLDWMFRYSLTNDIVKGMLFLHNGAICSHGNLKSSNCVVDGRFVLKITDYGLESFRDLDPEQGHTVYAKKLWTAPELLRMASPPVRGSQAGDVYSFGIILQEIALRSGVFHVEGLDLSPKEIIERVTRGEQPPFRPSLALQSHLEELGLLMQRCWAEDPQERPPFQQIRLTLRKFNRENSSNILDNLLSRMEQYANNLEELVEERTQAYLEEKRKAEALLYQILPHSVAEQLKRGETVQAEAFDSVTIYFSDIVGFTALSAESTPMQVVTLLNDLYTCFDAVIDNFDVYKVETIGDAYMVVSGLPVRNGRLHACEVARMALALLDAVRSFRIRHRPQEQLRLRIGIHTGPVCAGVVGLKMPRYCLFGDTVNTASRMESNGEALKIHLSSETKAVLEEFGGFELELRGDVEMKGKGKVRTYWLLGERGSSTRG

[3] = target: T3, human natriuretic peptide receptor A …; experiment: competition with 125I-labeled ANP on human NPRA transfected HEK293 cells; relative to Construct 1
Protocol: (§1) Plates were washed using vacuum filtration and allowed to dry. Scintillant was added and the plates were counted on a TopCount Scintillation counter. Curves were fit using XLfit4.2 and IC₅₀ values (Table 8) were determined using the Dose Response One Site Model 205, [4 parameter fit: y=A+((B-A)/(1+((C/x)̂D)))].

[4] = target: T3, human natriuretic peptide receptor A …; experiment: competition with 125I-labeled ANP on human NPRA transfected HEK293 cells; Ki=IC50/[1+([L]/Kd)]
Protocol: Plates were washed with ice cold buffer by vacuum filtration and allowed to dry. Scintillant was added and the plates were counted on a TopCount Scintillation counter.
as §1

[5] = target: T3, human natriuretic peptide receptor A …; experiment: competition with 125I-labeled ANP on human NPRA transfected HEK293 cells
Protocol: as §1

canine NPRA [6] = target: T1, canine NPRA; experiment: cell-based or functional assay; remark: listed apart in the source

cGMP EC50 (nM) Dog NPRA (canine NPRA [1]): 6 nM
cGMP EC50 (nM) Rat NPRA (rat NPRA): 12 nM
cGMP EC50 (nM) Monkey NPRA (monkey NPRA): 5 nM
cGMP EC50 (nM) Human NPRA [2]: 6 nM
Relative Affinity [3]: 1
Ki [4]: 2 nM
IC50 [5]: 4.3 nM
B1: Construct 5, ANPXY-L6-Fc2AB (recombinant) (Fc fusion)
chain: SLRRSSCFGGRMDRIGAQSGLGCNSFRYGGSGGSGGSGGSGGSGGSGGCPPCPAPPVAGPSVFLFPPKPKDTLMISRTPEVTCVVVDVSHEDPEVQFNWYVDGVEVHNAKTKPREEQFNSTFRVVSVLTVVHQDWLNGKEYKCKVSNKGLPAPIEKTISKTKGQPREPQVYTLPPSREEMTKNQVSLTCLVKGFYPSDIAVEWESNGQPENNYKTTPPMLDSDGSFFLYSKLTVDKSRWQQGNVFSCSVMHEALHNHYTQKSLSLSPGK
notes: also called ANP28-20aa-hFc2

cGMP EC50 (nM) Dog NPRA (canine NPRA [1]): 1.3 nM
cGMP EC50 (nM) Monkey NPRA (monkey NPRA): 0.5 nM
Mean EC50 nM, cGMP-caNPRA 293 (canine NPRA [6]): 1.34 nM
Binder: SLRRSSCFGGRMDRIGAQSGLGCNSFRY (ends and bridges not checked; also: also used 125I-labelled as radioligand) [human ANP28 peptide (hANP28)]

cGMP EC50 (nM) Dog NPRA (canine NPRA [1]): 46 nM
cGMP EC50 (nM) Rat NPRA (rat NPRA): 57 nM
cGMP EC50 (nM) Monkey NPRA (monkey NPRA): 18 nM
cGMP EC50 (nM) Human NPRA [2]: 27 nM
Relative Affinity [3]: 4
Ki [4]: 12.3 nM
IC50 [5]: 29.3 nM
B2: Construct 4, ANPXY-L4-Fc2AB (recombinant) (Fc fusion)
chain: SLRRSSCFGGRMDRIGAQSGLGCNSFRYGGSGGSGGSGGCPPCPAPPVAGPSVFLFPPKPKDTLMISRTPEVTCVVVDVSHEDPEVQFNWYVDGVEVHNAKTKPREEQFNSTFRVVSVLTVVHQDWLNGKEYKCKVSNKGLPAPIEKTISKTKGQPREPQVYTLPPSREEMTKNQVSLTCLVKGFYPSDIAVEWESNGQPENNYKTTPPMLDSDGSFFLYSKLTVDKSRWQQGNVFSCSVMHEALHNHYTQKSLSLSPGK
notes: also called ANP28-11aa-hFc2

Source: US20100310561A1 (Boehringer Ingelheim, published 2010)
